# Experimental data published in IntAct's records for PubMed 10664449.
# B1: Guanine nucleotide-binding protein subunit beta (Saccharomyces cerevisiae), P18851 (parent)
# chain: MAAHQMDSITYSNNVTQQYIQPQSLQDISAVEDEIQNKIEAARQESKQLHAQINKAKHKIQDASLFQMANKVTSLTKNKINLKPNIVLKGHNNKISDFRWSRDSKRILSASQDGFMLIWDSASGLKQNAIPLDSQWVLSCAISPSSTLVASAGLNNNCTIYRVSKENRVAQNVASIFKGHTCYISDIEFTDNAHILTASGDMTCALWDIPKAKRVREYSDHLGDVLALAIPEEPNSENSSNTFASCGSDGYTYIWDSRSPSAVQSFYVNDSDINALRFFKDGMSIVAGSDNGAINMYDLRSDCSIATFSLFRGYEERTPTPTYMAANMEYNTAQSPQTLKSTSSSYLDNQGVVSLDFSASGRLMYSCYTDIGCVVWDVLKGEIVGKLEGHGGRVTGVRSSPDGLAVCTGSWDSTMKIWSPGYQ
# partner: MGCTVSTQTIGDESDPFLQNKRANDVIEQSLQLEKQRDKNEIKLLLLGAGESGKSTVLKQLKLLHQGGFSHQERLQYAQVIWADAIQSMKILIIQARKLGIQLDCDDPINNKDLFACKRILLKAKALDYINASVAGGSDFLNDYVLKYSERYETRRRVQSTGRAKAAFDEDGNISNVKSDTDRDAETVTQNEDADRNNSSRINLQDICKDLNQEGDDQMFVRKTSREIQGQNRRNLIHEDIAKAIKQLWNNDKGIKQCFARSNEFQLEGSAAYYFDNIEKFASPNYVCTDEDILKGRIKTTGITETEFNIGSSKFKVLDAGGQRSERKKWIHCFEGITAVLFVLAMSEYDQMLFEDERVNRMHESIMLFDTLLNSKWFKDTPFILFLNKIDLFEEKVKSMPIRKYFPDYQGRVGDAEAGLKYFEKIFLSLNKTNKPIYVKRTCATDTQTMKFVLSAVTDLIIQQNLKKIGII
# Variants of: B1
# Settings: with gpa1_yeast GPA1, P08539
row,effect of a mutation on the interaction,Variant
1,decreasing interaction,L132F
